{"source": "paper PMC3367090", "target": "IpaD^Δ192-267 (IpaD distal domain deletion mutant) (S. flexneri) (UniProt P18013)"}
{"substance": "IpaD^Δ192-267 (IpaD distal domain deletion mutant) (from UniProt P18013 15-332) (natural protein)", "values": [{"measurement": "stoichiometry N", "result": 5}]}
